Data on 2 molecules can be found in US20220041756A1 (Chugai, published 2022).

This assay deals with T1, human CD3 epsilon on human CD3 epsilon-expressing Ba/F3 cells (human, UniProt P07766 23-207).
T1 construct: The Ba/F3 transfectant is not itself tied to that entry; also called CD3/BaF; CD3 epsilon chain
As to the kind of experiment: flow cytometry on human CD3 epsilon-expressing Ba/F3 cells, FITC-labeled secondary antibody, calibration curve. On the technique in general: Flow cytometry measures light scatter and fluorescence of single cells or particles in a stream.

T1 sequence (P07766 23-207 limits assumed): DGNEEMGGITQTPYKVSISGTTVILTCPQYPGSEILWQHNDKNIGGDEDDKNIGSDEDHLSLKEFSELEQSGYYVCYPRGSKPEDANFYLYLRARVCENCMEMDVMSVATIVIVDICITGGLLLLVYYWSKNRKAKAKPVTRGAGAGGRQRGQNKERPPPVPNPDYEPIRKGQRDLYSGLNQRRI
Protocol: After washing these cells, an FITC-labeled secondary antibody was added for further reaction. After washing the cells, the fluorescent intensity of the label on the cells was measured using Epics XL flow cytometer (Beckman coulter) to prepare a calibration curve for each antibody.
Plasma was prepared from the blood and diluted appropriately. […] The plasma concentration of each antibody was calculated using determined values and the calibration curves described above.

B1: GPC3 ERY10-1 (bispecific antibody, human IgG1, kappa, L234A L235A, N297A)
heavy 1: QVQLVQSGAEVKKPGASVKVSCKASGYTFTDYEMHWIRQPPGQGLEWIGAIDPKTGDTAYSQKFKGRVTLTADKSTSTAYMELSSLTSEDTAVYYCTRFYSYTYWGQGTLVTVSSASTKGPSVFPLAPSSKSTSGGTAALGCLVKDYFPEPVTVSWNSGALTSGVHTFPAVLQSSGLYSLSSVVTVPSSSLGTQTYICNVNHKPSNTKVDKKVEPKSCDKTHTCPPCPAPEAAGGPSVFLFPPKPKDTLMISRTPEVTCVVVDVSHEDPEVKFNWYVDGVEVHNAKTKPREEQYASTYRVVSVLTVLHQDWLNGKEYKCKVSNKALPAPIEKTISKAKGQPREPQVYTLPPSRCELTKNQVSLSCAVKGFYPSDIAVEWESNGQPENNYKTTPPVLDSDGSFFLVSKLTVDKSRWQQGNVFSCSVMHEALHNHYTQKSLSLSPGGGGSGGGGSQAVVTQESALTTSPGETVTLTCRSSTGAVTTSNYANWVQEKPDHLFTGLIGGTNKRAPGVPARFSGSLIGDKAALTITGAQTEDEAIYFCALWYSNLWVFGGGTKLTVLGGGGSGGGGSGGGGSEVKLLESGGGLVQPKGSLKLSCAASGFTFNTYAMNWVRQAPGKGLEWVARIRSKYNNYATYYADSVKDRFTISRDDSQSILYLQMNNLKTEDTAMYYCVRHGNFGNSYVSWFAYWGQGTLVTVSADYKDDDDK
heavy 2: QVQLVQSGAEVKKPGASVKVSCKASGYTFTDYEMHWIRQPPGQGLEWIGAIDPKTGDTAYSQKFKGRVTLTADKSTSTAYMELSSLTSEDTAVYYCTRFYSYTYWGQGTLVTVSSASTKGPSVFPLAPSSKSTSGGTAALGCLVKDYFPEPVTVSWNSGALTSGVHTFPAVLQSSGLYSLSSVVTVPSSSLGTQTYICNVNHKPSNTKVDKKVEPKSCDKTHTCPPCPAPEAAGGPSVFLFPPKPKDTLMISRTPEVTCVVVDVSHEDPEVKFNWYVDGVEVHNAKTKPREEQYASTYRVVSVLTVLHQDWLNGKEYKCKVSNKALPAPIEKTISKAKGQPREPQVCTLPPSRDELTKNQVSLWCLVKGFYPSDIAVEWESNGQPENNYKTTPPVLDSDGSFFLYSKLTVDKSRWQQGNVFSCSVMHEALHNHYTQKSLSLSPHHHHHHHH
light: DIVMTQSPLSLPVTPGEPASISCRSSQSLVHSNRNTYLHWYQQKPGQAPRLLIYKVSNRFSGVPDRFSGSGSGTDFTLKISRVEAEDVGVYYCSQNTHVPPTFGQGTKLEIKRTVAAPSVFIFPPSDEQLKSGTASVVCLLNNFYPREAKVQWKVDNALQSGNSQESVTEQDSKDSTYSLSSTLTLSKADYEKHKVYACEVTHQGLSSPVTKSFNRGEC
notes: Anti-GPC3 IgG backbone with silent Fc and knobs-into-holes CH3; also called GPC ERY10-1
For the molecule B1, the binding result was “binds”.

B2: GPC3 ERY9-1 (bispecific antibody, human IgG1, kappa, L234A L235A, N297A)
heavy: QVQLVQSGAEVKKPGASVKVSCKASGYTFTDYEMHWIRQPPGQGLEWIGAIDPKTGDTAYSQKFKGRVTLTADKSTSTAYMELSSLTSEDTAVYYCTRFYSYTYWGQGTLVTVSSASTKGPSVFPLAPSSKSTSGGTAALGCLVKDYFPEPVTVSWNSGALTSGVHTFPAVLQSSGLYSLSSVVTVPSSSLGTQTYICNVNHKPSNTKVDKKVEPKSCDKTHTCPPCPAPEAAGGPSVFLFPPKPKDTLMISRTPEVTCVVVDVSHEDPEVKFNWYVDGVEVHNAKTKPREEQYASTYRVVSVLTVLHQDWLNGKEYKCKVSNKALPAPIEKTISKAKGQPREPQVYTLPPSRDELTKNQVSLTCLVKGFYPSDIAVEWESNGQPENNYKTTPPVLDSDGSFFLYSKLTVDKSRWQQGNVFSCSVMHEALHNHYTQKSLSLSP
light 1: DIVMTQSPLSLPVTPGEPASISCRSSQSLVHSNRNTYLHWYQQKPGQAPRLLIYKVSNRFSGVPDRFSGSGSGTDFTLKISRVEAEDVGVYYCSQNTHVPPTFGQGTKLEIKRTVAAPSVFIFPPSDEQLKSGTASVVCLLNNFYPREAKVQWKVDNALQSGNSQESVTEQDSKDSTYSLSSTLTLSKADYEKHKVYACEVTHQGLSSPVTKSFNRGECHHHHHHHH
light 2: DIVMTQSPLSLPVTPGEPASISCRSSQSLVHSNRNTYLHWYQQKPGQAPRLLIYKVSNRFSGVPDRFSGSGSGTDFTLKISRVEAEDVGVYYCSQNTHVPPTFGQGTKLEIKRTVAAPSVFIFPPSDEQLKSGTASVVCLLNNFYPREAKVQWKVDNALQSGNSQESVTEQDSKDSTYSLSSTLTLSKADYEKHKVYACEVTHQGLSSPVTKSFNRGECGGGGSGGGGSQAVVTQESALTTSPGETVTLTCRSSTGAVTTSNYANWVQEKPDHLFTGLIGGTNKRAPGVPARFSGSLIGDKAALTITGAQTEDEAIYFCALWYSNLWVFGGGTKLTVLGGGGSGGGGSGGGGSEVKLLESGGGLVQPKGSLKLSCAASGFTFNTYAMNWVRQAPGKGLEWVARIRSKYNNYATYYADSVKDRFTISRDDSQSILYLQMNNLKTEDTAMYYCVRHGNFGNSYVSWFAYWGQGTLVTVSADYKDDDDK
notes: Anti-GPC3 IgG backbone with silent Fc
Regarding B2, the binding result was “binds”.
